30 substances from patent US20240294646A1 can be followed below.

The term EC50 denotes the concentration giving half of the maximal effect. A high value points to a less potent agent.

Test [1] has as its target C1q (human) (UniProt P02745). Briefly: cell-based or functional assay.
Test [2] concerns the target Soluble FcγRIIb extracellular domain with C-terminal 10×His tag (UniProt P31994). Briefly: SPR (Protocol 2); ratio of FcγRIIb fold to FcγRIIaR fold over wild-type.
The target of test [3] is Soluble FcγRIIaR extracellular domain with C-terminal 10×His tag (UniProt P12318). Briefly: SPR (Protocol 2): one-armed antibody captured on immobilised HER2, soluble receptor as analyte; fold over wild-type.
The target of test [4] is Soluble FcγRIIb extracellular domain with C-terminal 10×His tag (UniProt P31994). The description is as above.
The target in test [5] is C1q (human) (UniProt P02745). Briefly: C1q ELISA, antibody coated. (In general: An ELISA detects its analyte on a solid surface through an enzyme-linked reagent.)
In test [6] the target is FcγRIIaR (UniProt P12318). Briefly: SPR; trastuzumab FSA variant against FSA WT v21653. Background: Surface plasmon resonance follows binding to a sensor surface in real time, without labels.
The target in test [7] is FcγRIIb (UniProt P31994). The test can be described thus: SPR; trastuzumab FSA variant against FSA WT v21653.
Test [8] deals with C1q (human) (UniProt P02745). The test can be described thus: ELISA; antibody coated, human C1q added, signal as % of WT.
In test [9] the target is FcγRIIb (UniProt P31994). The test can be described thus: SPR; ratio of IIb-fold to IIaR-fold, FcγRIIaR as comparison receptor.

FcγRIIb, sequence (P31994 43-217): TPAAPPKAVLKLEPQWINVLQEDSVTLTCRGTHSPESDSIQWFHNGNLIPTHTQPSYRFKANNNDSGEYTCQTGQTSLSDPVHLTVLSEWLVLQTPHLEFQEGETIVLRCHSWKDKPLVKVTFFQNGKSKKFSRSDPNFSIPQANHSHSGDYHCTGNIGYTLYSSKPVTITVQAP
FcγRIIaR, sequence (P12318 34-217): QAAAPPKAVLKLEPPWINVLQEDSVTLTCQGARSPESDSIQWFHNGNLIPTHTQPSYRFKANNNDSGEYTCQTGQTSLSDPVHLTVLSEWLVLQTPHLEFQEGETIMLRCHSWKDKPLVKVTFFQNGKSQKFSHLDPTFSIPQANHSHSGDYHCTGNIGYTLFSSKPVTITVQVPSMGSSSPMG
C1q (human), sequence (P02745 23-245 limits assumed, chain 1 of 3): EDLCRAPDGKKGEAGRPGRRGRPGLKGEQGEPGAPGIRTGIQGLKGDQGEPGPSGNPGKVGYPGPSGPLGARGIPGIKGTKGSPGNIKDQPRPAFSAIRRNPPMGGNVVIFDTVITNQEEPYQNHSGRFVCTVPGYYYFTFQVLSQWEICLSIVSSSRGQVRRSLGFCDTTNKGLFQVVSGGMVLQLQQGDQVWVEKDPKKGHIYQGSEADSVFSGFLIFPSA
C1q (human), sequence (P02746 28-253 limits assumed, chain 2 of 3, further chain): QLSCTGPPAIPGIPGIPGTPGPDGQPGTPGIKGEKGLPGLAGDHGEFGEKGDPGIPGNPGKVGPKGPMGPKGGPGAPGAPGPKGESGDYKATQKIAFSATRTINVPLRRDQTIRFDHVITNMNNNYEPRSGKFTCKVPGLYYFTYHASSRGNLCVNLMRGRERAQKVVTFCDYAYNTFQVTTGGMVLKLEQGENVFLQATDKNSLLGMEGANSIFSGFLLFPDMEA
C1q (human), sequence (P02747 29-245 limits assumed, chain 3 of 3, further chain): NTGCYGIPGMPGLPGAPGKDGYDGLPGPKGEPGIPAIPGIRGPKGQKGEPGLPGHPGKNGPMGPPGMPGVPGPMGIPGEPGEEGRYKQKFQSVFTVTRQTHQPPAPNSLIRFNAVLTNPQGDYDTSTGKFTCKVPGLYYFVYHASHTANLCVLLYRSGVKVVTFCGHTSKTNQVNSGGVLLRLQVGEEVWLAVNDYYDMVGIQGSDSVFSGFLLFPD
Soluble FcγRIIaR extracellular domain with C-terminal 10×His tag, sequence (P12318 other isoform, or with tags, fused parts or gaps): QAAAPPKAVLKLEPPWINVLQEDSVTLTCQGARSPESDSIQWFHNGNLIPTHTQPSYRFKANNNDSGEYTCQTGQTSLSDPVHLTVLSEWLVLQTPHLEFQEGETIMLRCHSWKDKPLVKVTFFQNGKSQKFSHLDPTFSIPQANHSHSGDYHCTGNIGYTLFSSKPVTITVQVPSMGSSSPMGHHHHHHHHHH
Soluble FcγRIIb extracellular domain with C-terminal 10×His tag, sequence (P31994 other isoform, or with tags, fused parts or gaps): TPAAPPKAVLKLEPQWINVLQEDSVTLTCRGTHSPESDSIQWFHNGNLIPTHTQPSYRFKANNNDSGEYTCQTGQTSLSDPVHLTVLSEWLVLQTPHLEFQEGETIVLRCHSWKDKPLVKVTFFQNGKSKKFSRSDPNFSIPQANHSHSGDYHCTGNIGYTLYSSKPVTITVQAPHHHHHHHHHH

With “anti-CD40 full-size antibody (Chi Lob 7/4 Fab) with control Fc SELF (S267E_L328F)”, in test [1], the CDC assay on Ramos cells: Lysis (%) Mean, at highest test antibody concentration came out at 78.2%; the CDC assay on Ramos cells: Normalized Potency Mean was 93.6 % of WT; the CDC assay on Ramos cells: Potency (ng/mL) Mean, antibody concentration above which >20% cell lysis was achieved was 166 ng/mL.

Turning to “Variant 22119 (one-armed trastuzumab antibody, heterodimeric IgG1 Fc; A: L234F_G236N_H268Q_K274Q_A327G_A330K_P331S / B: L234F_G236D_S239D_V266L_S267I_H268D_K274Q_A327G_A330S_P331S)”, in test [2], the IIb/IIaR Selectivity (IIb-Fold/IIaR-Fold) is 7.9. For the same substance, the IIaR-fold (fold change in affinity over wild-type) in test [3] was determined as 0.8 fold. The IIb-fold (fold change in affinity over wild-type) in test [4] is 6.2 fold.

In test [5], “anti-CD40 (Chi Lob 7/4) full-size antibody, control SELF (S267E_L328F)” showed a C1q - Variant Binding Relative to WT (%) of 50.4%, a C1q Concentration at Onset of Binding of 0.73 nM and an EC50 of 4.73 nM.

“anti-CD40 (Chi Lob 7/4) full-size antibody, control v12 (symmetrical E233D_G237D_P238D_H268D_P271G_A330R)”: the C1q - Variant Binding Relative to WT (%) in test [5] came to 0%.

With “anti-CD40 (Chi Lob 7/4) full-size antibody, wild-type CH2 (variant 21653)”, in [5], the C1q Concentration at Onset of Binding came out at 0.41 nM and the EC50 came to 1.49 nM.

In the case of “Variant 19540, Lead 3 (one-armed trastuzumab antibody, heterodimeric IgG1 Fc; A: L234D_G236N_S267A / B: G236D_S239D_V266L_S267A_H268D)”, the IIb/IIaR Selectivity (IIb-Fold/IIaR-Fold) in test [2] was determined as 14. In addition, the IIaR-fold (fold change in affinity over wild-type) in test [3] was determined as 1.8 fold. For the same substance, the IIb-fold (fold change in affinity over wild-type) in test [4] was 25.4 fold.

Consider “Variant 22116 (one-armed trastuzumab antibody, heterodimeric IgG1 Fc; A: L234D_G236N_S267A_K326D / B: G236D_S239D_V266L_S267A_H268D_K326D)”, for which the IIb/IIaR Selectivity (IIb-Fold/IIaR-Fold) in test [2] was determined as 12.1. Moreover, the IIaR-fold (fold change in affinity over wild-type) in test [3] was 2.6 fold. The substance further yielded an IIb-fold (fold change in affinity over wild-type) in test [4] of 31.9 fold.

In test [5], “anti-HER2 (trastuzumab) full-size antibody, wild-type CH2 (variant 21653)” came in with a C1q Concentration at Onset of Binding of 0.16 nM and an EC50 of 0.88 nM.

Turning to “anti-CD19 (4G7) full-size antibody, Fc negative variant (L234A_L235A_D265S)”, in [5], the C1q - Variant Binding Relative to WT (%) came to 0.61% and the C1q Concentration at Onset of Binding stood at 29.6 nM.

In [5], “anti-CD19 (4G7) full-size antibody, control v12 (symmetrical E233D_G237D_P238D_H268D_P271G_A330R)” displayed a C1q - Variant Binding Relative to WT (%) of 6.72% and a C1q Concentration at Onset of Binding of 2.84 nM.

Turning to “Variant 22120 (one-armed trastuzumab antibody, heterodimeric IgG1 Fc; A: L234F_G236N_H268Q_K274Q_A327G_A330K_P331S_K326D / B: L234F_G236D_S239D_V266L_S267A_H268D_K274Q_A327G_A330S_P331S_K326D)”, in test [2], the IIb/IIaR Selectivity (IIb-Fold/IIaR-Fold) came to 8.8. Also, in test [3], the IIaR-fold (fold change in affinity over wild-type) came to 9.7 fold. In addition, the IIb-fold (fold change in affinity over wild-type) in [4] was 85.8 fold.

“anti-CD40 full-size antibody (Chi Lob 7/4 Fab) with wild-type CH2, v21653”: in test [1], the CDC assay on Ramos cells: Lysis (%) Mean, at highest test antibody concentration was 77.8% and the CDC assay on Ramos cells: Potency (ng/mL) Mean, antibody concentration above which >20% cell lysis was achieved worked out at 67.7 ng/mL.

With “Variant 32278 (trastuzumab FSA; chain A S267A_strat2, chain B G237L_strat2) (antibody)”, the IIaR-fold (fold change in affinity over wild-type) in test [6] was found to be 9 fold over WT. The IIb-fold (fold change in affinity over wild-type) in test [7] worked out at 155 fold over WT. Also, the C1q Binding (% WT) in test [8] is 1 % WT. The IIb Selectivity (IIb-Fold/IIaR-Fold) in [9] is 17.

Take “Variant 32266 (trastuzumab FSA; chain A S239G_strat1, chain B G330*K_strat1) (antibody)”: the IIaR-fold (fold change in affinity over wild-type) in test [6] amounted to 30 fold over WT. The same substance displayed an IIb-fold (fold change in affinity over wild-type) in test [7] of 1150 fold over WT. Besides, the C1q Binding (% WT) in test [8] was determined as 219 % WT. Moreover, in test [9], the IIb Selectivity (IIb-Fold/IIaR-Fold) came to 38.

As for “anti-CD40 (Chi Lob 7/4) full-size antibody, Fc negative variant (L234A_L235A_D265S)”, the C1q - Variant Binding Relative to WT (%) in test [5] is 0%.

As to “Variant 32267 (trastuzumab FSA; chain A S239H_strat1, chain B G330*K_strat1) (antibody)”, the IIaR-fold (fold change in affinity over wild-type) in test [6] came out at 25 fold over WT. This substance also yielded an IIb-fold (fold change in affinity over wild-type) in test [7] of 803 fold over WT. The C1q Binding (% WT) in [8] amounted to 201 % WT. Further, the IIb Selectivity (IIb-Fold/IIaR-Fold) in test [9] stood at 33.

As for “Variant 32265 (trastuzumab FSA; chain A S239A_strat1, chain B G330*K_strat1) (antibody)”, in test [6], the IIaR-fold (fold change in affinity over wild-type) was 36 fold over WT. Besides, the IIb-fold (fold change in affinity over wild-type) in test [7] was 1120 fold over WT. For the same substance, the C1q Binding (% WT) in test [8] was determined as 224 % WT. For the same substance, in test [9], the IIb Selectivity (IIb-Fold/IIaR-Fold) stood at 31.

For “Variant 32258 (trastuzumab FSA; chain A A237L_strat1, chain B G330*K_strat1) (antibody)”, in test [6], the IIaR-fold (fold change in affinity over wild-type) stood at 11 fold over WT. In addition, the IIb-fold (fold change in affinity over wild-type) in [7] came out at 476 fold over WT. Besides, the C1q Binding (% WT) in test [8] stood at 201 % WT. Besides, the IIb Selectivity (IIb-Fold/IIaR-Fold) in [9] turned out to be 44.

On to “Variant 32264 (trastuzumab FSA; chain A L235D_strat1, chain B G330*K_strat1) (antibody)”, for which the IIaR-fold (fold change in affinity over wild-type) in test [6] turned out to be 17 fold over WT. In test [7], this substance gave an IIb-fold (fold change in affinity over wild-type) of 557 fold over WT. In addition, the C1q Binding (% WT) in test [8] came to 146 % WT. In addition, the IIb Selectivity (IIb-Fold/IIaR-Fold) in [9] amounted to 33.

As for “Variant 32276 (trastuzumab FSA; chain A P329V_strat2, chain B G237L_strat2) (antibody)”, the IIaR-fold (fold change in affinity over wild-type) in test [6] amounted to 4 fold over WT. The substance also showed an IIb-fold (fold change in affinity over wild-type) in [7] of 94 fold over WT. Moreover, in [8], the C1q Binding (% WT) was determined as 3 % WT. For the same substance, the IIb Selectivity (IIb-Fold/IIaR-Fold) in test [9] is 24.

In turn, “anti-CD19 (4G7) full-size antibody, control SELF (S267E_L328F)” had an EC50 in [5] of 0.36 nM.

Take “Variant 32254 (trastuzumab FSA; chain A S239H_strat1, chain B D329*I_F328*Y_strat1) (antibody)”: in test [6], the IIaR-fold (fold change in affinity over wild-type) worked out at 3 fold over WT. Further, in test [7], the IIb-fold (fold change in affinity over wild-type) was found to be 159 fold over WT. In test [8], the C1q Binding (% WT) amounted to 159 % WT. Besides, the IIb Selectivity (IIb-Fold/IIaR-Fold) in test [9] amounted to 47.

Turning to “Variant 19585, Lead 2 (one-armed trastuzumab antibody, heterodimeric IgG1 Fc; A: L234F_G236N_H268Q_K274Q_A327G_A330K_P331S / B: L234F_G236D_S239D_V266L_S267A_H268D_K274Q_A327G_A330S_P331S)”, in test [2], the IIb/IIaR Selectivity (IIb-Fold/IIaR-Fold) came out at 12. For the same substance, the IIaR-fold (fold change in affinity over wild-type) in [3] was 4.1 fold. Besides, the IIb-fold (fold change in affinity over wild-type) in [4] was found to be 49.5 fold.

“Variant 22117 (one-armed trastuzumab antibody, heterodimeric IgG1 Fc; A: L234D_G236N_H268Q_K274Q_A327G_A330K_P331S / B: L234F_G236D_S239D_V266L_S267A_H268D_K274Q_A327G_A330S_P331S)”: the IIb/IIaR Selectivity (IIb-Fold/IIaR-Fold) in [2] is 12.7. For the same substance, in test [3], the IIaR-fold (fold change in affinity over wild-type) was determined as 2.3 fold. The same substance returned an IIb-fold (fold change in affinity over wild-type) in test [4] of 28.7 fold.

Turning to “Variant 22131 (one-armed trastuzumab antibody, heterodimeric IgG1 Fc; A: L234F_G236N_S267A / B: G236D_S239D_V266L_S267A_H268D)”, the IIb/IIaR Selectivity (IIb-Fold/IIaR-Fold) in test [2] was found to be 10.4. Also, in [3], the IIaR-fold (fold change in affinity over wild-type) stood at 4.3 fold. The substance also displayed an IIb-fold (fold change in affinity over wild-type) in test [4] of 45.1 fold.

Take “Variant 22115 (one-armed trastuzumab antibody, heterodimeric IgG1 Fc; A: L234D_G236N_S267A_H268Q_K274Q_A327G_A330K_P331S / B: G236D_S239D_V266L_S267I_H268D_L234F_K274Q_A327G_A330K_P331S)”: the IIb/IIaR Selectivity (IIb-Fold/IIaR-Fold) in [2] amounted to 5.9. Also, the IIaR-fold (fold change in affinity over wild-type) in test [3] came out at 0.4 fold. Also, the IIb-fold (fold change in affinity over wild-type) in test [4] stood at 2.6 fold.

Take “anti-CD40 full-size antibody (Chi Lob 7/4 Fab) with Fc negative variant (L234A, L235A, D265S)”: the CDC assay on Ramos cells: Lysis (%) Mean, at highest test antibody concentration in test [1] stood at 5.13%.

With “anti-CD19 (4G7) full-size antibody, wild-type CH2 (variant 21653)”, in test [5], the EC50 was 0.31 nM.

Regarding “Variant 32270 (trastuzumab FSA; chain A E272Y_strat2, chain B G237L_strat2) (antibody)”, in test [6], the IIaR-fold (fold change in affinity over wild-type) was 11 fold over WT. The IIb-fold (fold change in affinity over wild-type) in test [7] came to 196 fold over WT. Moreover, in test [8], the C1q Binding (% WT) is -1 % WT. The IIb Selectivity (IIb-Fold/IIaR-Fold) in [9] amounted to 18.

For the substance “Variant 32272 (trastuzumab FSA; chain A K330T_strat2, chain B G237L_strat2) (antibody)”, the IIaR-fold (fold change in affinity over wild-type) in [6] is 9 fold over WT. For the same substance, in [7], the IIb-fold (fold change in affinity over wild-type) was 164 fold over WT. For the same substance, the C1q Binding (% WT) in test [8] is 3 % WT. The IIb Selectivity (IIb-Fold/IIaR-Fold) in [9] worked out at 18.
